Assay results: publication PMC7347935, “STK11 (LKB1) missense somatic mutant isoforms promote tumor growth, motility and inflammation” (Communications Biology, 2020)

Target: T1, LKB1^Y49D (human, UniProt Q15831 1-433, Y49D)
T1 sequence (looked up): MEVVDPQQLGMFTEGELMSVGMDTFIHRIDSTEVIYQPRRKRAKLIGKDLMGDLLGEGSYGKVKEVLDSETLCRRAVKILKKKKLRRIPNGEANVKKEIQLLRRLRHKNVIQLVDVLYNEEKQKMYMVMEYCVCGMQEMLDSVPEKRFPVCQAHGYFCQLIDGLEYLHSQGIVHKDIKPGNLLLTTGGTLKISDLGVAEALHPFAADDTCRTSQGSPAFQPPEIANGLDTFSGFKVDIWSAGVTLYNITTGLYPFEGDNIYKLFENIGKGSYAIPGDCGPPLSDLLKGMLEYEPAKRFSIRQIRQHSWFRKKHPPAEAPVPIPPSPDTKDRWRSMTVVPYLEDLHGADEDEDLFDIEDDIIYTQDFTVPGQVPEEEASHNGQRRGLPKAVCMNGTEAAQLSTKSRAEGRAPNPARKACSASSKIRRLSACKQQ
Test: cell-based or functional assay

specific in vitro kinase activity towards NUAKtide peptide in the presence of STRADα, relative to LKB1^WT: ~30 % of LKB1^WT activity
B1: STRADα (natural protein, human (endogenous in A549 and G361), UniProt Q7RTN6 1-431, looked up)
chain: MSFLVSKPERIRRWVSEKFIVEGLRDLELFGEQPPGDTRRKTNDASSESIASFSKQEVMSSFLPEGGCYELLTVIGKGFEDLMTVNLARYKPTGEYVTVRRINLEACSNEMVTFLQGELHVSKLFNHPNIVPYRATFIADNELWVVTSFMAYGSAKDLICTHFMDGMNELAIAYILQGVLKALDYIHHMGYVHRSVKASHILISVDGKVYLSGLRSNLSMISHGQRQRVVHDFPKYSVKVLPWLSPEVLQQNLQGYDAKSDIYSVGITACELANGHVPFKDMPATQMLLEKLNGTVPCLLDTSTIPAEELTMSPSRSVANSGLSDSLTTSTPRPSNGDSPSHPYHRTFSPHFHHFVEQCLQRNPDARPSASTLLNHSFFKQIKRRASEALPELLRPVTPITNFEGSQSQDHSGIFGLVTNLEELEVDDWEF
